From patent US20240247068A1 (INDUSTRY FOUNDATION OF CHONNAM NATIONAL UNIVERSITY, published 2024)

T1: calreticulin (CRT) exposed on the cell membrane of drug-treated CT26 and MC38 cells (UniProt P14211 18-416, limits assumed)
T1 construct: whole, on cells; Target is inferred from cells on which calreticulin exposure was induced by anticancer drugs; cells were fixed with 3% paraformaldehyde; also called calreticulin on the cell surface
T1 sequence (looked up): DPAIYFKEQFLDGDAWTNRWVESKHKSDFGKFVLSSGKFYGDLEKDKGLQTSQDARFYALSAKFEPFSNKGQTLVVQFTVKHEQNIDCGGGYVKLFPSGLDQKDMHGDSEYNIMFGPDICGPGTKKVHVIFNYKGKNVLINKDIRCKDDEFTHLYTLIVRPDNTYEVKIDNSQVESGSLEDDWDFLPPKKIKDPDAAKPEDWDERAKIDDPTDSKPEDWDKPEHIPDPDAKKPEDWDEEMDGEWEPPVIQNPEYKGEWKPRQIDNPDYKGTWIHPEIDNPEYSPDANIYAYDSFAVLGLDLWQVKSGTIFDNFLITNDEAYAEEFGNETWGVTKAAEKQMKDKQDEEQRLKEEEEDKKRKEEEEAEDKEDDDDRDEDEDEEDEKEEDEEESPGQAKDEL

T2: calreticulin (CRT) exposed on the cell membrane of drug-treated Hela and MDA-MB-231 cells (UniProt P27797 18-417, limits assumed)
T2 construct: whole, on cells; Target is inferred from cells on which calreticulin exposure was induced by anticancer drugs; cells were fixed with 3% paraformaldehyde; also called calreticulin on the cell surface
T2 sequence (looked up): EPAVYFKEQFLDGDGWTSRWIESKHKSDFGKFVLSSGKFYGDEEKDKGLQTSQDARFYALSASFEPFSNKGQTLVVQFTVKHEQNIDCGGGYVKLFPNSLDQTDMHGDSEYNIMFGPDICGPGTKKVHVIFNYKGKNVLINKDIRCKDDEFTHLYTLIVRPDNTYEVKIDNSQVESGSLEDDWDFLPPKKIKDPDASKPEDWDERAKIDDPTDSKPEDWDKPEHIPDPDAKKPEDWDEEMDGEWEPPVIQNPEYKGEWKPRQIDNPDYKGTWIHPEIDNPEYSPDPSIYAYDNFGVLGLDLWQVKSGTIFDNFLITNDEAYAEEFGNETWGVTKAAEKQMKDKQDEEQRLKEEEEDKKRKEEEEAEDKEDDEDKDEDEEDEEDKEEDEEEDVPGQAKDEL


Assays:
[1] = target: T1, calreticulin (CRT) exposed on the cell …; test: confocal microscopy, mitoxantrone-treated CT26 cells, 10 µg/mL monobody, anti-His tag detection
Experimental: In order to verify the binding force of the purified CRT-monobody to calreticulin, the present inventors observed the degree of binding with a confocal microscope after treating the cancer cells with CRT-monobody. Specifically, CT26 (colon cancer) cells, which are cancer cells, were seeded at 1×10⁵ cells per well in chamber slides (154534PAK, Thermo Fisher Scientific) and cultured overnight in a C02 incubator. Then, each of the cells was treated with mitoxantrone (25 μM), which is an anticancer drug, to induce calreticulin on the surface thereof, treated with gemcitabine (15 μM) as a control group, and cultured for 4 hours, washed with PBS, and reacted with 3% paraformaldehyde for 10 minutes to fix the cells. Then, a block buffer (3% BSA in PBS) was treated for 1 hour to prevent the hard-to-bind antibody, and the CRT-monobody (10 μg/mL) of the present invention was treated in each well and reacted for 1 hour to induce binding to calreticulin. […] In addition, Alexa 555 conjugated WGA-555 (1:2000, 3% BSA in PBS) was treated in order to distinguish cell membranes, DAPI-Glod-antifade was treated, and mounting was performed, and the prepared slides were refrigerated under dark conditions.

[2] = target: T2, calreticulin (CRT) exposed on the cell …; test: confocal microscopy, mitoxantrone- or doxorubicin-treated Hela and MDA-MB-231 cells, 10 µg/mL, anti-His tag detection
Experimental: In order to verify the binding force of the CRT-monobody-Rluc8 protein to calreticulin, the present inventors observed the degree of binding with a confocal microscope after purifying CRT3-R, CRT4-R, and DGR-R as in Example 3 and treating cancer cells with the CRT-monobody-Rluc8 proteins. Specifically, cancer cells such as CT26 (colon cancer), MC38 (colon cancer), Hela (uterine cancer), and MDA-MB-231 (breast cancer) were seeded at 1×10⁵ cells per well in chamber slides (154534PAK, Thermo Fisher Scientific) and cultured overnight in a CO₂ incubator. Then, each of the cells was treated with doxorubicin (25 μM) and mitoxantrone (25 μM), which are anticancer drugs, to induce calreticulin on the surface thereof, treated with gemcitabine (15 μM) as a control group, and cultured for 4 hours, washed with PBS, and reacted with 3% paraformaldehyde for 10 minutes to fix the cells. Then, a block buffer (3% BSA in PBS) was treated for 1 hour to prevent the hard-to-bind antibody, and the CRT-monobody (10 μg/mL) was treated in each well and reacted for 1 hour to induce binding to calreticulin. […] In addition, Alexa 555 conjugated WGA-555 (1:2000, 3% BSA in PBS) was treated in order to distinguish cell membranes, DAPI-Glod-antifade was treated, and mounting was performed, and the prepared slides were refrigerated under dark conditions.

[3] = target: T1, calreticulin (CRT) exposed on the cell …; test: flow cytometry, mitoxantrone- or doxorubicin-treated CT26 and MC38 cells, 5 µg/mL, anti-His tag detection
Text: (§1) The present inventors allowed cancer cells to react with CRT-monobody-Rluc8, and then measured the binding degree in the number of cells in order to more accurately confirm the binding force of CRT-monobody-Rluc8, which was purified according to an embodiment of the present invention, to calreticulin. To this end, CT26, MC38, Hela, and MDA-MB-231 cells were first cultured, and then the expression of calreticulin on the cell surface was induced by the same method (gemcitabine, doxorubicin, and mitoxantrone) as in Example 5. […] Finally, in order to identify cells bound to CRT-monobody, fluorescence signals of the cells were identified using a flow cytometer (BD Bioscience).
(§2) As a result, when the CT26 (colon cancer), MC38 (colon cancer), Hela (uterine cancer), and MDA-MB-231 (breast cancer) cells were not treated with an anticancer drug and when the cells were treated with gemcitabine, no exposure of calreticulin on the cell membrane was confirmed through fluorescence signals for each cell, and there was no signal change after CRT-monobody treatment of the present invention, so that it was confirmed that the CRT-monobody was not bound to the cells.

[4] = target: T2, calreticulin (CRT) exposed on the cell …; test: flow cytometry, mitoxantrone- or doxorubicin-treated Hela and MDA-MB-231 cells, 5 µg/mL, anti-His tag detection
Text: as §1, §2

Row | Binder | binding result [1] | other results
1 | CRT4 recombinant CRT-monobody (designed binder, His-tagged protein from E. coli, purified on Ni-NTA) MASVSDVPRDLEVVAATPTSLLISWGQPMYGQPMYYYRITYGETGGNSPVQEFTVPGSKSTATISGLKPGVDYTITVYAVTKLGFFKRPISINYRTGSHHHHHH | binds | –
2 | CRT1 recombinant CRT-monobody (designed binder, His-tagged protein expressed in E. coli BL21(DE3) from pETh plasmid, purified on Ni-NTA; FG loop: Hep 1; BC and DE loops unchanged) MASVSDVPRDLEVVAATPTSLLISWDAPAVTVRYYRITYGETGGNSPVQEFTVPGSKSTATISGLKPGVDYTITVYAVTGQPMYGQPMYPISINYRTGSHHHHHH | binds | –
3 | CRT3 recombinant CRT-monobody (designed binder, His-tagged protein from E. coli, purified on Ni-NTA) MASVSDVPRDLEVVAATPTSLLISWKLGFFKRYYRITYGETGGNSPVQEFTVPGSKSTATISGLKPGVDYTITVYAVTGQPMYGQPMYPISINYRTGSHHHHHH | binds | –
4 | CRT6 recombinant CRT-monobody (designed binder, His-tagged protein from E. coli, purified on Ni-NTA; BC loop: Int alpha; DE and FG loops marked '-') MASVSDVPRDLEVVAATPTSLLISWKLGFFKRYYRITYGETGGNSPVQEFTVPGSKSTATISGLKPGVDYTITVYAVTGRGDSPASSKPISINYRTGSHHHHHH | binds | –
5 | CRT5 recombinant CRT-monobody (designed binder, His-tagged protein from E. coli, purified on Ni-NTA; BC loop: Hep 1; DE and FG loops marked '-') MASVSDVPRDLEVVAATPTSLLISWGQPMYGQPMYYYRITYGETGGNSPVQEFTVPGSKSTATISGLKPGVDYTITVYAVTGRGDSPASSKPISINYRTGSHHHHHH | binds | –
6 | CRT4-R (recombinant CRT-monobody-Rluc8 of CRT4) (designed binder, not shown: large carriers; small tags and cut ends, detected with anti-His tag antibody) MASVSDVPRDLEVVAATPTSLLISWGQPMYGQPMYYYRITYGETGGNSPVQEFTVPGSKSTATISGLKPGVDYTITVYAVTKLGFFKRPISINYRT | – | binding result [2]: binds; binding result [3]: binds
7 | CRT2 recombinant CRT-monobody (designed binder, His-tagged protein from E. coli, purified on Ni-NTA; FG loop: Int alpha; BC and DE loops unchanged) MASVSDVPRDLEVVAATPTSLLISWDAPAVTVRYYRITYGETGGNSPVQEFTVPGSKSTATISGLKPGVDYTITVYAVTKLGFFKRPISINYRTGSHHHHHH | binds | –
8 | CRT3-R (recombinant CRT-monobody-Rluc8 of CRT3) (designed binder, not shown: large carriers; small tags and cut ends, detected with anti-His tag antibody) MASVSDVPRDLEVVAATPTSLLISWKLGFFKRYYRITYGETGGNSPVQEFTVPGSKSTATISGLKPGVDYTITVYAVTGQPMYGQPMYPISINYRT | – | binding result [4]: binds; binding result [3]: binds
